# Laboratory results from patent US6797264B1, “Medicinal product and method for treatment of conditions affecting neural stem cells or progenitor cells” (Cellartis AB, priority 1998, dated 2004).
# Experiments:
# [1] = test system: progenitor cells in the dentate gyrus; experiment: BrdU-positive (newborn) cells in the dentate gyrus of hypophysectomized rats; format: in vivo, Fisher rats
# Text: In this example, the density of BrdU-positive cells in the dentate gyrus of hypophysectomized (Hx) rate treated according to the invention with growth hormone (GH), cortisol (C), and L-thyroxine (T) was compared to the density of BrdU-positive cells in the dentate gyrus of hypophysectomized rats treated with cortisol (C), and L-thyroxine (T), and to the density of the same cells for an untreated unoperated control group.
# Fisher rats (Harlan Sprague Dawley) which were inact or hypophysectomized at 50 days of age were mainained under standardized conditions of temperature (24-26° C.), humidity (50-60%) and with lights on between 0500 and 1900 h.
# (§1) The rats had free access to standard laboratory chow and water. Hormonal treatment started 7-10 days after hyophysectomy. All the hypophysectomized rats were given cortisol phosphate (400 μg/kg/day; Solu-Cortef, Upjohn, Puurs, Belgium) and L-thyroxine (10 μg/kg/day; Sigma, USA) diluted in saline as a daily subcutaneous injection (at 0800 h). Recombinant bovine GH (bGH) was diluted in 0.05 M phosphate buffer, pH 8.6, with 1.6% glycerol and 0.02% sodium azide. GH 1 mg/kg/day was given as one daily subcutaneous injection at 24 h intervals. The treatment continued for seven days. Thereafter the rats were sacrificed and the brains taken out and prepared for immunohistochemistry.
# (§2) Ten hypophysectomized rats were substituted with only cortisole and L-thyroxine. […] The thymidine analog BrdU is incorporated into the genetic material upon mitotic division whereafter it can be detected immunohistochemically in the resulting cells. […]
# (§3) The number of BrdU positive cells in the dentate gyrus of the hippocampus were counted using unbiased counting techniques. […]
# For the immunofluorescence, sections were treated for DNA denaturation as described above, followed by incubation in TBS-TS for 30 min. Thereafter the sections were incubated with mouse-anti-Calbindin-D28k, 1:2000 (Sigma) for 16 h at 4° C. and was detected with a Texas red conjugated donkey anti-mouse IgG. BrdU was detected with a FITC conjugated rabbit anti-BrdU antibody. […]
# [2] = test system: progenitor cells in the dentate gyrus; experiment: BrdU-positive cell proliferation in normal rats treated with GH; format: in vivo, Fisher rats; settings: normal animals treated one week with GH, compared with normal controls and with hypophysectomized animals substituted one week then unsubstituted 3 weeks
# Description: as §1
# as §2, with “L-thyroxine. Fifteen hypophysectomized rats were substituted with cortisole, L-thyroxine and GH.” for “L-thyroxine.”
# as §3
# The total number of BrdU positive cells in the granule cell layer, the subgranular layer and the hilus and their corresponding sample volumes were determined in 7-9 coronal sections, […], that contained the dentate gyrus. […]
molecule,measurement,setting,value
"GH: Recombinant bovine growth hormone, given 1 mg/kg/day subcutaneously together with cortisol and L-thyroxine (protein, UniProt P01246 27-217, looked up) Somatotropin: AFPAMSLSGLFANAVLRAQHLHQLAADTFKEFERTYIPEGQRYSIQNTQVAFCFSETIPAPTGKNEAQQKSDLELLRISLLLIQSWLGPLQFLSRVFTNSLVFGTSDRVYEKLKDLEEGILALMRELEDGTPRAGQILKQTYDKFDTNMRSDDALLKNYGLLSCFRKDLHKTETYLRVMKCRRFGEASCAF",rate of proliferation of progenitor cells,"[1]; hypophysectomized animals treated with cortisol and L-thyroxine, quantified after one week of substitution",significantly increased
same,granulae cell neurons,"[1]; hypophysectomized animals, cortisone, thyroxine and GH vs only cortisone and thyroxine, four weeks after the last BrdU injection, FIG. 2",significantly more granulae cell neurons
same,number of newborn cells in the dentate gyrus,"[1]; hypophysectomized rats, GH 1 mg/kg/day s.c. plus cortisone and thyroxine, after 7 days, compared to only cortisone and thyroxine, FIG. 1",significantly increased
same,proliferation,[2],increased
